Laboratory results from the DeepSol protein solubility set.

Assay: soluble on expression in E. coli; label from the status in PepcDB or PDB records
With “MDNGHIEETNNVEIDPATGGAVMSFSYASDFPTLPDAAPASAPTAKQTHVWSRPTLSKSEVNITFRLASDERSNKVKSFGSTSEESKKAQAIATATKTRIELSESKDGELTVVVKGERAKAEEARARIIRDLQTQASREIDIPKDHHGRLIGKEGALLRNLEAETNCRIQIPNRDGPSSKITITGPREGIQRAAAHILAVSEREAKLATEHIVCPKNLVAFVRGPKNETYDRLTQNNGVKINIPPPHVTNEVISVTGEKDGVLRVAAEIRQIIESKKNVSSIQVAVARTQHRYIVGQSRSGIHDVLQKTGCVVEVPAEDSGSDQVTLIGNAQDLAKALALVIERASSVVTQSISAPNWLHKHLIGPKGATLTALVPNRNNVQIEFDNSNQIFLEGSPEEVKLAFEPLSKEVARLQMELAIEKVKVHPTLHRHVIGRGGSLISKIKDQHGVQITIPNEETNSDEIVVEGKKEGVKKAVTEIRAIVTKIENEKSRDIIIPQRLHKLIIGSKGSGVQVIRDSHPNVSVVFPDAKSKSDVVNIRGDKTEVDAVYKKLTALSKEYAENNYQQTVAIFKEFLKHIVGKGGASIRKLRDETETRIDLPESGSDDGKITVTGKQANVEKAVAQLNKIQEELANVAEESIEIPQKVQSRFFGNGRRLISDIEDECGGVHIRFPSEKSESTKVTIRGPAGDVAKAVGLLSALAKDKEENYVEDTVKAKPEFHRFLIGKGGSKIAKLRDTLNVRVMFPKEGDAEKETIHLLGKKEDVPKAKAALEDAIKQLSETVDIKITVDPKYYKNFLARGAALVKEIQEQNGGVVISFPKNGTDSSEVSIRGSKQCVEAAKNRIEDVVEDYEKQITDNVTIPAQFHRGLLAGRGAKIHELQSKYNVSIRFPNNREEGSEGSDQVTVSGRDTKVEEAKEALLAMVPISKVIQLPVDMHRSIIGRGGETVRKLMQDYDVNISIPKDNSSEDITVTGQTENVDQALEALRGKLGEYEAQAEDRKLKQWSMSINVPTDYHQKIIGQRGATITALKEKYGVIINVPREDGNETITIQGYEEKANECAAAIEEMISELRSMFTQEISLDARYHPRLIGQRGKNLKKVMEDYRVEIRLPRQGAEDPNLVVVAGKDENDVYDCIDHLRAEEEEFLLDNVERTQYMSPRQQESNNTRHHQQPTSVQMKGAPWQLDLGSSEQFPDMGPAAGSSAAVGGAGAWGSSRRW” the “soluble on expression in E. coli” value was “not soluble”. For “MDNHGILESLLFTAGDEGLDEKQLLEILDMSKDQLVELIENYSSHGLMIQRFGMTYVLTTKKEAATYIEQLIEQKSQMKLSQAAMEVLSIIAYNQPLSRSDIELIRSINSDGAVKTLIAKGLVEAKVVNEQRSQQLITTDLFLNVFGISNIEDLPTTEEDDEEMDAFFSNLVNQKGENND”, the “soluble on expression in E. coli” value was “not soluble”. For “MDPFKKPVRMLPIKGAPISRPISVFTFDVFNPPDDSDGSSTPDSVFEAETSPARTPPTPALILPYDYVSSEDSDDEAQEHADNRDTNDQVSESSTSEDSDSESESSCDDTQQTFVDDESTSSSGEEDRDDPFESNDQGAQGGSTSESEDDLPAILRAARETQSDSSSDSSGNSHKKRRVQEEESSRILKTPAPISGNGKYNWPWLD”, the “soluble on expression in E. coli” value was “soluble”. With “MDPLDDLLTQLEGVEEEELKPVNRAPRLLNMEEACENQGSSEKPSDSSSKNRYEDDDSDDEELYVKKRELTEQGALLKRHLEKNSSTSGPKATDAWKTNKKSVLTGLTKPSTDTVTVGIVRFDKFQISIRNPKISATSFGAFTAGMKLEKLSNLKPTSNFKEAWCTIGVIVEKGFKKKSANGNDFLIWKLHDLKDCQTQPVKLLMFGDAIKDHWEIKLGSVIALISAQIADDSTASGAKKTVSATLKVAKSNNIVEIGQSAHFGTCKGIRQQDGQRCSNFVNSSLSEFCVFHVMSAARKLSAKRGVFNAVTCGPNVGGLSFNKKPGTPRPPISSRPGISGSGLATSSGSPMLRDTMRPADSFTLTTPTSGLKKITKEEEKSSLNDLLSQRKNTFAARQMLKLKEKKDEKLAESVEEMIEFLGTTGGEEKPSVHSSFGEFLAADTRREKAATVDLRASSATSGTSASSPGGSKLWTMSLANKKAAPLGHKDAQEHAARLRAIAILKAKRKEAEMEKLTGGGGGVKRKASGTPTAPEPEAKKPRSQKMDEIRAMLARKSTHHKEAEKAEHDMLQRHLTGMEEREKVETFTTTCVEVKNVKVVTCNQCKYTSQFASSECIKKEHKLIKHTADKRFFKCTGCKKRTVCFEMMPVKHCAHCNENKWERVAMKDERKVVLDTENLLLRGEERPFVGS” the “soluble on expression in E. coli” value was “not soluble”. For “MDQEIKSLELNITQLSAITGAHRQTIASRLKGVKTSGGNGSNLKIYRLVDILTAMMTMPAVTGENDPNKMKPSDRRAWFQSEMTRIELEKEMRTLIPASEVLSVYAVMAKTVVKTLEILPDLLERDAALPPDALEMTQKIIDQLREDLASMTYQACADAINGDDDDNGDEGQEEEQE”, the “soluble on expression in E. coli” value was “not soluble”. For “MDQKGILRFHEELASLVLKMRSKGIDDVRFFTALEKIPRQQFVSSPWFKSAYDNKVIPIECGEYIERLEEQLLILYALSLKKKHRVLEIGTGSGFCTAFMACLSDRVITVDRYKTLVDLARQKFQTLGIENIVVRQIDGSRIITGFGSFDRILIWPSRSDEPKEFLELLTENGILIQAIGPDEGVQTITRYTKIASRFECLEMFQVRYQPFIEGIAETL”, the “soluble on expression in E. coli” value was “not soluble”. With “MDQKQLQALVEQISIRVFGKPFRHTAFFNPRLRTTGGRYMLQTHNIELNKKHYEQFGEEELIAIIKHELCHYHLHLEGKGYRHRDRDFRELLQKVGAPRYCRPLARNTKAPKTIYTYICTSCGLTYRRKRRINIDRYVCGRCRSKLKRS” the “soluble on expression in E. coli” value was “not soluble”. With “MDRFHATSADCCISYTPRSIPCSLLESYFETNSECSKPGVIFLTKKGRRFCANPSDKQVQVCMRMLKLDTRIKTRKN” the “soluble on expression in E. coli” value was “soluble”. For “MDRLDRKILRILQEDSTLAVADLAKKVGLSTTPCWRRIQKMEEDGVIRRRVALLDPVKVNTKVTVFVSIRTASHSIEWLKRFSEVVSEFPEVVEFYRMSGDVDYLLRVVVPDIAAYDAFYKRMIAKIEIRDVSSAFAMEQIKYTTELPLDYMLLDNPKSGEE”, the “soluble on expression in E. coli” value was “soluble”. With “MDRLESVLKEERVFYPSEEFRKQAHIKSEEEYQRLYEESVRDPEGFWGRVASELHWFEPWRKVLEGDLPHPKWFVGGKTNLSYNALDRHVKTWRRNKAAIVWEGEPGEERVLTYHDLWREVQRFANVLKRLGVKKGDRVTIYLPMIPEAAIAMLACTRIGAVHSVVFGGFSAGALADRIKDAEAKVLITADGGFRRGGIVPLKQNADEALKDATSVEHVVVVRRTGEEVPWTPGRDHWWHELMEAAPDRCDPEPMEAEEPLFILYTSGSTGKPKGVLHTTGGYMTYVYYTTKLVFDLKDEDVYWCTADVGWITGHSYVVYGPLLNGATTVMYEGAPNWPEPDRFWRIVDKYGVTVFYTAPTAIRSFMKWGEGWPGKHRLDSLRLLGTVGEPINPEAWLWYYHVIGKGRCPIVDTWWQTETGGIMITTLPGAHAMKPGHAGKPFFGVVPEILDGEHRPVENPDEGGHLCITRPWPSMLRTVWGDPERFLQQYFSQHPGVYFSGDGAKRDKDGYYMILGRVDDVLNVAGHRLGTMEIESALVAHPAVAEAAVVGRPDPVKGEAIVAFVTLKEGHTPSDALKEELRAHVAKVIGPIARPDEIRFTDALPKTRSGKIMRRLLRQIAAGEKEIKGDTSTLEDRSVVERLKEGA” the “soluble on expression in E. coli” value was “soluble”. In the case of “MDSDRLSSVEQFPDRGNNHVEEGSAIDYQRVPPLSGTHYASTVSAGFYEATPLLGSLVHTLEHGAVIVYYDPDEISPEARQSLREFSSVHTGTWRSVVAVPNPNDDPRATYVVTAWQHELTIDSYDAETVHAFLSEYLGRGPENPVRLEHHHHHH”, the “soluble on expression in E. coli” value is reported as “not soluble”. For “MDSTARGHAPLCRTSNQRGLGTRLNPYYQSTPHQPMVQSMSNPIGSYGEQGNAQIIGSSGQVLSTGPPPGLAPVQCNDFDSCYSSCDDISHPSLSRESSDPSKIDDDQTAPMIRYPAPEVVEFATKLGYSTEQLSHVLNTIGVDSRMDDVLSELVKMGLPGGKPENSGKSGSRNSPEPIMTSSASSSSASSSSSHRPIRQSVSIATSSPATSSSTPSKYNPDPSLRAVVVDGSNVAMLHGRKEVFSCAGLRECLNYFLERGHPEVLIFIPQYRREQPRSDSPITDQHILQEIERHIIYTPSRNVNGRRVVCHDDRYILRTAELKDAVIVSNDEYRDLTRENPAWRKIVEERLLMFTFVEDKSVF”, the “soluble on expression in E. coli” value was “not soluble”. In the case of “MDSVVSDVSDLVEPDEELKAWQTDRTRAPIATKIVVAGGFGAGKTTLVTAVSEITPLQTEALMTQASEDTDDLTGTPDKLTTTVAMDFGRITLDDDLVLYLFGTPGQQRFWFMWDDLVRGAIGAVVLADTRRLSDCFPALDYFESCGLPYVVAVNHFDGSEKFEPEDVREALTVPAHIPVMIMDARRRISVIETLLALVGHALEVSPELEHHHHHH”, the “soluble on expression in E. coli” value is reported as “soluble”. With “MDTFGLIQLAELIYEYCGIDFFKNLSSLESKISERLKELGLSCWEYGGYLRVEPKEWDTLIDLITVNETYFFREENLLEEFQKVILPKYKDRTPNNPLRIWSSACSSGEEPYTLAILSEETGLFETGAVEIIASDIDKKVLEKARRGLYNKKSFSFRTMPKEILDKYFISFGDDYKVKDSIRAMVDFRRVNLLDENKLEKVGEVDIVFCRNVLIYFDTKAINKVINSLYKVLRAGGYLFLGHAETITGMNTGFETIYTPSAFYYRKGERH” the “soluble on expression in E. coli” value was “not soluble”. With “MDTIININNNNQKYPQSAEEYHKVLCNYFITLQSAMQSTSRPSSSSPPSLPAVSSELLSSSFPTNAPESSSRDLAPKQNQFTINVVLFDEKKKKNPEENLPANGDQLATLRSLMMQINPSSPPSIPATSPQLPLAESENVPESSSTLKDHKFSLNTMLFNVKKNDAVKISLANQEQWAKFHEIGTEMMVFNSGRRLFPLLAYKVSGLDPHKLYCAGVHMIPDSAYKQEYDHDLQQWVNCLNQKKTIFKPTSEILGRIENGFKLMSLGIDMSDVKIFNIAIRKKTPLQIEKSRKPNLDKTIEVLIQYKYLPVIKIYELSNSGMEKKEIAQATFPETSFVTVSIYRNQKIKEMKTLGNKYCRTDRKQIVMEQRGELEQ” the “soluble on expression in E. coli” value was “not soluble”. For “MDTLQFQKNPETAAKMSAYMKHQFVFAGIPAPERQALSKQLLKESHTWPKEKLCQEIEAYYQKTEREYQYVAIDLALQNVQRFSLEEVVAFKAYVPQKAWWDSVDAWRKFFGSWVALHLTELPTIFALFYGAENFWNRRVALNLQLMLKEKTNQDLLKKAIIYDRTTEEFFIQKAIGWSLRQYSKTNPQWVEELMKELVLSPLAQREGSKYLAKASE”, the “soluble on expression in E. coli” value was “soluble”. With “MDTPFIVFWELTRACMLACKHCRAKAIRKRHPDELTTEECFNVIDQLSEFNPKPLLIITGGDPLMRDDVTEIISHAAEKGFRVAIAFSGTEKATEEKLRELKEAGVARVAVSIDGSDEEKHDSFRGVRGTFRMSMMAIENAKKAGLPFQINTTVTRENIEDLPNIARLCLELGAVMWDVFFVVPTGRAKAEMMPTPQQFE” the “soluble on expression in E. coli” value was “not soluble”. With “MDVEAFYKISYGLYIVTSESNGRKCGQIANTVFQLTSKPVQIAVCLNKENDTHNAVKESGAFGVSVLELETPMEFIGRFGFRKSSEFEKFDGVEYKTGKTGVPLVTQHAVAVIEAKVVKECDVGTHTLFVGEAVDAEVLKDAEVLTYADYHLMKKGKTPRTATVYFESK” the “soluble on expression in E. coli” value was “soluble”. For “MDVKWEGFSGVEMEEVKRNVFLTTLEQLKGWARSSSLWPLTFGLACCAIEMMAVGGAHYDLDRFGSFFRASPRQADVMIVSGTVTKKMAPLLRRLYDQMPEPKWVIAMGSCATAGGPYVKSYSVVKGVDQIVPVDVYIPGCPPNPAALIYGIHKLKEKIRLEAKTGKKVL”, the “soluble on expression in E. coli” value was “not soluble”.
